Literature values, collected in article PMC12301332, “Biased antagonism of a series of bicyclic CXCR2 intracellular allosteric modulators” (Frontiers in Pharmacology, 2025).

Target: T1, CXCR2 (Homo sapiens, UniProt P25025)
T1 construct: expressed in transfected cells
T1 sequence (P25025 1-360): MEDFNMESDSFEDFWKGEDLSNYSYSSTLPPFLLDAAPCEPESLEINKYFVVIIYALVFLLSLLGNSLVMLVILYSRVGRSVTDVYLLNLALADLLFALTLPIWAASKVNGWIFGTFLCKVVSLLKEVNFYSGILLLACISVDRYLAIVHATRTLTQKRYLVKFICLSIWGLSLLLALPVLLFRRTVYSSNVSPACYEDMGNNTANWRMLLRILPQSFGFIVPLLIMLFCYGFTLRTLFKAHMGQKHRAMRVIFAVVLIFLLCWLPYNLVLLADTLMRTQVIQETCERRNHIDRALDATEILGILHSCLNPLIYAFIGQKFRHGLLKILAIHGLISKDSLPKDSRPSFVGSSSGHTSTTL
Design: method as in Boon et al., 2024
Settings: agonist concentration used in NanoBRET assays; ref Boon et al., 2024; cited from earlier work

| Substance | β-arrestin EC80 |
| --- | --- |
| CXCL8: recombinant human ELR+ chemokine, CXCR2 ligand (PeproTech) | 17.29 nM |
| CXCL1: recombinant human ELR+ chemokine, CXCR2 ligand (PeproTech) | 59.18 nM |
| CXCL6: recombinant human ELR+ chemokine, CXCR2 ligand (PeproTech) | 168.00 nM |
| CXCL5: recombinant human ELR+ chemokine, CXCR2 ligand (PeproTech) | 86.19 nM |
| CXCL3: recombinant human ELR+ chemokine, CXCR2 ligand (PeproTech) | 100.10 nM |

Target: T1, CXCR2
Design: method as in Boon et al., 2024
Settings: agonist concentration used in NanoBRET assays; ref Boon et al., 2024; cited from earlier work
Remark: another data set of the same source

| Substance | G-protein EC80 |
| --- | --- |
| CXCL8: recombinant human ELR+ chemokine, CXCR2 ligand (PeproTech) | 4.16 nM |
| CXCL1: recombinant human ELR+ chemokine, CXCR2 ligand (PeproTech) | 3.20 nM |
| CXCL6: recombinant human ELR+ chemokine, CXCR2 ligand (PeproTech) | 17.12 nM |
| CXCL5: recombinant human ELR+ chemokine, CXCR2 ligand (PeproTech) | 5.16 nM |
| CXCL3: recombinant human ELR+ chemokine, CXCR2 ligand (PeproTech) | 8.92 nM |
